B1: Lactobacillus fermentum N-deoxyribosyl transferase (NTD, LF), native/wild type, SEQ ID No. 2 (Limosilactobacillus fermentum) (protein)
chain: MKNTDPVANTKIYLATSFFNEEQRARIPQALAQLEANPTVGVVHQPFDFQYKDARVDSDPAGVFGSLEWQIATYNNDLNAVGTSDVCVALYDMDQIDEGICMEIGMFVALHKPIVLLPFTKKDKSAYEANLMLARGVTTWLEPNDFSPLKDFNFNHPMAQPFPPFKVF
notes: crude extract or purified
B2: Lactobacillus fermentum N-deoxyribosyl transferase (NTD) variant LFA15T, mutation A15T, SEQ ID No. 4 (Limosilactobacillus fermentum; A15T) (protein)
chain: MKNTDPVANTKIYLTTSFFNEEQRARIPQALAQLEANPTVGVVHQPFDFQYKDARVDSDPAGVFGSLEWQIATYNNDLNAVGTSDVCVALYDMDQIDEGICMEIGMFVALHKPIVLLPFTKKDKSAYEANLMLARGVTTWLEPNDFSPLKDFNFNHPMAQPFPPFKVF
notes: crude extract or purified

What was measured:
[1] = substrate: Cc1cn([C@H]2CC[C@@H](CO)O2)c(=O)[nH]c1=O; assay: Enzymatic activity tests (dT+C, ddT+C and d4T+C reactions), native enzyme LF; format: biochemical, Lactobacillus fermentum; conditions: other: native LF; deoxyribosyl donor + C (cytosine); 37.0 °C
Method: (§1) 50 μl of enzymatic extract is added to 200 μl of 100 mM citrate buffer, pH 6.44, in the presence of 3 mM ddU or dU final and of 1 mM C final for the strain PAK9, the whole is incubated at 37° C. The progress of the reaction is monitored by TLC (silica; eluent: MeOH—CH2Cl2 (20/80)). […] The disappearance of the substrates and the formation of the products were also quantified by HPLC analysis. The different products are separated by analytical HPLC with a reversed-phase column (100-5C18) using a flow rate of 1 ml/min and a linear gradient of 5-25% CH3CN in a 10 mM triethyl ammonium acetate buffer at pH 7.5 for 20 minutes.
(§2) were used as primer in an amplification reaction under standard conditions using the ntd gene of L. fermentum cloned in pSU19 (pLF6) as DNA matrix. The amplification product was digested by the restriction enzymes Nde1 and BamH1 for 2 hours at 37° C., purified on agarose gel and inserted into the plasmid pET24a digested by the same enzymes then the ligation mixture is used to transform the strain β 2033. The plasmid DNA from the colonies was prepared and digested by the enzymes Nde1 and BamH1. Those, the sequence of which was correct, were used to transform the strain BL21 (DE3)/plysS (Novagen). The plasmid DNA of the mutant pSU19NLFA15T selected previously was prepared then digested by the enzymes Nde1 and BamH1. The corresponding fragment Nde1-BamH1 was then inserted into the plasmid pET24a digested by the same enzymes in order to produce the expression plasmid pETLFA15T useful to the expression of the mutated protein. A strain of E. coli transformed using the plasmid pETLFA15T was deposited at the CNCM (INSTITUT PASTEUR, 25 rue du Docteur Roux, F-75724 PARIS Cedex 15) on 22 Mar. 2004 under accession number I-3192. The overproduction of the two N-deoxyribosyl transferases, native and mutated, was obtained from cultures of this strain in 500 ml of LB medium supplemented with Km and Cm. These cultures were induced at an OD600=0.6 by the addition of IPTG (0.4 mM), the incubation being continued for 2 hours 30 minutes at 37° C.
(§3) The cells are then centrifuged for 15′ at 4000 rpm at 4° C., washed in 50 ml of phosphate buffer then the pellet obtained after centrifugation is preserved overnight at −20° C. The bacterial pellet resuspended in 20 ml of phosphate buffer is then lysed by passage through a French press at 14000 psi. The lysate is centrifuged for 90′ at 50,000 rpm. The supernatant containing the soluble proteins is then precipitated with ammonium sulphate (40% saturation). The precipitate obtained after centrifugation at 13900 rpm (20,000 g) for 30′ at 4° C. is resuspended in 1 ml of 100 mM phosphate buffer, pH 7.5, 1.5 M NaCl, then deposited on a Sephacryl S200 gel filtration column (Amersham-Pharmacia). The fractions are then analyzed by SDS-PAGE gel and the enzymatic activity determined. […] The protein concentration is determined by measuring the OD at 280 nm.
(§4) The measurement of the enzymatic activities is carried out as described in paragraph 4.2.
(§5) The enzymatic activities of the native and mutant N-deoxyribosyl transferases of L. leichmannii (LL and LL G9S) and of L. fermentum (LF and LFA15T) in the exchange reactions dT+C ? dC+T, ddT+C ? ddC+T and d4T+C ? d4C+T were evaluated starting from crude extracts or purified proteins.
(§6) These different values were measured according to the protocol described in the literature [P A Kaminski (2002) “Functional cloning, heterologous expression and purification of two different N-deoxyribosyl transferases from Lactobacillus helveticus” J. Biol. Chem; vol. 277; 14400-14407]. […] The activities are increased respectively by 60% and 54%.

[2] = substrate: Cc1cn([C@H]2C[C@H](O)[C@@H](CO)O2)c(=O)[nH]c1=O; assay: as above; format: biochemical, Lactobacillus fermentum; conditions: other: native LF; deoxyribosyl donor + C (cytosine); 37.0 °C
Method: as §1, §2, §3, §4, §5, §6

[3] = substrate: Cc1cn([C@H]2C=C[C@@H](CO)O2)c(=O)[nH]c1=O; assay: as above; format: biochemical, Lactobacillus fermentum; conditions: other: native LF; deoxyribosyl donor + C (cytosine); 37.0 °C
Method: as §1, §2, §3, §4, §5, §6

[4] = exchange reaction d4T + C (transfer of didehydroribose), specific activity of N-deoxyribosyl transferases; format: biochemical; conditions: for specific activity, d4T + C: relative, 100% = specific activity of NTD of L. leichmannii (LL) in dT + C, crude extracts or purified proteins
Method: (§7) The cells are then centrifuged at 4000 rpm for 30 minutes at 4° C., the pellet is resuspended in 10 ml of phosphate buffer (Na2HP04+NaH2PO4) at 50 mM (pH=7.5). After centrifugation, the pellet is resuspended in 1 ml of the same buffer. The cells, preserved in ice, are then subjected to three cycles of 30 s of sonication and 30 s of rest. After centrifugation at 12000 rpm for 2×15 minutes at 4° C., the supernatants are recovered and stored at −20° C.
as §1
as §3, with “The precipitate obtained after centrifugation at 13900 rpm (20,000 g) for 30′ at 4° C. is resuspended in 1 ml of 100 mM phosphate buffer, pH 7.5, 1.5 M NaCl, then deposited on a Sephacryl S200 gel filtration column (Amersham-Pharmacia).” left out, “nm. […]” for “nm.”
as §5

[5] = exchange reaction dT + C (transfer of deoxyribose), specific activity of N-deoxyribosyl transferases; format: biochemical; conditions: for specific activity, dT + C: relative, 100% = specific activity of NTD of L. leichmannii (LL) in dT + C, crude extracts or purified proteins
Method: as §7, §1
as §3, with “The precipitate obtained after centrifugation at 13900 rpm (20,000 g) for 30′ at 4° C. is resuspended in 1 ml of 100 mM phosphate buffer, pH 7.5, 1.5 M NaCl, then deposited on a Sephacryl S200 gel filtration column (Amersham-Pharmacia).” left out, “nm. […]” for “nm.”
as §5

[6] = exchange reaction ddT + C (transfer of dideoxyribose), specific activity of N-deoxyribosyl transferases; format: biochemical; conditions: for specific activity, ddT + C: relative, 100% = specific activity of NTD of L. leichmannii (LL) in dT + C, crude extracts or purified proteins
Method: as §7, §1
as §3, with “The precipitate obtained after centrifugation at 13900 rpm (20,000 g) for 30′ at 4° C. is resuspended in 1 ml of 100 mM phosphate buffer, pH 7.5, 1.5 M NaCl, then deposited on a Sephacryl S200 gel filtration column (Amersham-Pharmacia).” left out, “nm. […]” for “nm.”
as §5

[7] = enzymatic activity test (kinetic constants), ddT+C reaction; format: biochemical
Method: as §6

[8] = enzymatic activity test (kinetic constants), d4T+C reaction; format: biochemical
Method: as §6

[9] = substrate: Cc1cn([C@H]2CC[C@@H](CO)O2)c(=O)[nH]c1=O; assay: Enzymatic activity tests (dT+C, ddT+C and d4T+C reactions), mutated enzyme LFA15T; format: biochemical, Lactobacillus fermentum; conditions: other: mutant LFA15T; deoxyribosyl donor + C (cytosine); 37.0 °C
Method: (§8) The sequencing of the plasmids present in the selected transformants of PAK 9 made it possible to identify a mutation in the sequence (ntd) having the effect of substituting a residue T for the residue A in position 15 in the corresponding protein sequence (SEQ ID No. 2) (mutation called A15T).
as §1
as §2, with “A strain of E. coli transformed using the plasmid pETLFA15T was deposited at the CNCM (INSTITUT PASTEUR, 25 rue du Docteur Roux, F-75724 PARIS Cedex 15) on 22 Mar. 2004 under accession number I-3192. The overproduction of the two N-deoxyribosyl transferases, native and mutated, was obtained from cultures of this strain in 500 ml of LB medium supplemented with Km and Cm. These cultures were induced at an OD600=0.6 by the addition of IPTG (0.4 mM), the incubation being continued for 2 hours 30 minutes at 37° C.” left out
(§9) The cells are then centrifuged for 15′ at 4000 rpm at 4° C., washed in 50 ml of phosphate buffer then the pellet obtained after centrifugation is preserved overnight at −20° C. […] The fractions are then analyzed by SDS-PAGE gel and the enzymatic activity determined. […] The protein concentration is determined by measuring the OD at 280 nm. […]
as §5
(§10) These different values were measured according to the protocol described in the literature [P A Kaminski (2002) “Functional cloning, heterologous expression and purification of two different N-deoxyribosyl transferases from Lactobacillus helveticus” J. Biol. Chem; vol. […]

[10] = substrate: Cc1cn([C@H]2C[C@H](O)[C@@H](CO)O2)c(=O)[nH]c1=O; assay: as above; format: biochemical, Lactobacillus fermentum; conditions: other: mutant LFA15T; deoxyribosyl donor + C (cytosine); 37.0 °C
Method: as §8, §1
as §2, with “A strain of E. coli transformed using the plasmid pETLFA15T was deposited at the CNCM (INSTITUT PASTEUR, 25 rue du Docteur Roux, F-75724 PARIS Cedex 15) on 22 Mar. 2004 under accession number I-3192. The overproduction of the two N-deoxyribosyl transferases, native and mutated, was obtained from cultures of this strain in 500 ml of LB medium supplemented with Km and Cm. These cultures were induced at an OD600=0.6 by the addition of IPTG (0.4 mM), the incubation being continued for 2 hours 30 minutes at 37° C.” left out
as §9, §5, §10

[11] = catalytic effectiveness Kcat/Km
[12] = mutated enzyme versus native enzyme
[13] = mutant LFA15T versus native enzyme LF

| Molecule | Km [1] [µM] | Vmax [1] [µmol/s] | Km [2] [µM] | Vmax [2] [µmol/s] | Km [3] [µM] | Vmax [3] [µmol/s] | specific activity, d4T + C [4] [%] | specific activity, dT + C [5] [%] | specific activity, ddT + C [6] [%] | times more effective than native enzyme LF, ddT+X exchange [7, 11] [times] | increase of catalytic activity on ddT [7, 12] [%] | factor by which activity is increased, transfer of didehydroribose [4, 13] | factor by which activity is reduced, transfer of deoxyribose [5, 13] | times more effective than native enzyme LF, d4T+X exchange [8, 11] [times] | increase of catalytic activity on d4T [8, 12] [%] | Km [9] [µM] | Vmax [9] [µmol/s] | Km [10] [µM] | Vmax [10] [µmol/s] | factor by which activity is increased, transfer of dideoxyribose [6, 13] |
| --- | --- | --- | --- | --- | --- | --- | --- | --- | --- | --- | --- | --- | --- | --- | --- | --- | --- | --- | --- | --- |
| B1 | 80 | 5.7 | 124 | 6.65 | 1250 | 24 | 2.1 | 76.5 | 0.9 | – | – | – | – | – | – | – | – | – | – | – |
| B2 | – | – | – | – | – | – | 73.5 | 10.7 | 2.5 | 60 | 54 | 35 | 7 | 7.5 | 60 | 53 | 7.8 | 371 | 9.7 | 3 |

Source: patent US7820795B2, “Lactobacillus fermentum N-desoxyribosyl transferases and the use thereof for enzymatic synthesis of 2′, 3′—didesoxynucleosides and 2′,3′- didehydro-2′,3′- didesoxynucleosides” (Institut Pasteur, priority 2004, dated 2010)
